Measured values reported in US20220112276A1 (Janssen / Centocor, published 2022).
Residue numbers refer to the chain shown, from its start.

B1: 03A08R3 VHH Mono-Fc (Fc fusion)
chain: QVQLVESGGGLVQAGGSLRLSCAASGRTSSIYGMGWFRQAPGKEREFVAAISWSAGRTYHADSVKGRFTISRDNAKNMVYLQMDKMKPGDTAVYYCAARRAPELLSDYTQKPEEIGTYHYWGQGTLVTVSSSPAPELLGGPSVFLFPPKPKDTLMISRTPEVTCVVVDVSHEDPEVKFNWYVDGVEVHNAKTKPREEQYNSTYRVVSVLTVLHQDWLNGKEYKCKVSNKALPAPIEKTISKAKGQPREPQVYTKPPSREEMTKNQVSLSCLVKGFYPSDIAVEWESNGQPENNYKTTVPVLDSDGSFRLASYLTVDKSRWQQGNVFSCSVMHEALHNHYTQKSLSLSPGK
B2: 02G04R3 VHH Mono-Fc (Fc fusion)
chain: QVQLVESGGGLVQAGGSLRLSCAANGRAANAYAVGWFRQAPGKEREFVAHIRWNGGRTAYADSVKGRFTISRDDAKNTVYLQMDSLKPEDTAVYYCAEDTNPDAFGDLRLPSEYEYWGQGTQVTVSSSPAPELLGGPSVFLFPPKPKDTLMISRTPEVTCVVVDVSHEDPEVKFNWYVDGVEVHNAKTKPREEQYNSTYRVVSVLTVLHQDWLNGKEYKCKVSNKALPAPIEKTISKAKGQPREPQVYTKPPSREEMTKNQVSLSCLVKGFYPSDIAVEWESNGQPENNYKTTVPVLDSDGSFRLASYLTVDKSRWQQGNVFSCSVMHEALHNHYTQKSLSLSPGK
B3: 01D09R3 VHH Mono-Fc (Fc fusion)
chain: QVQLVESGGGLVQAGGSLRLSCAASGRTFSVYAMGWFRQAPGKERQFVAAITWSGGSTSYADSVKGRFTISRDNAKNTVYLQMNILKPEDTAVYYCAAATNPYFSDYYPDLKYEFDYWGQGTLVTVSSSPAPELLGGPSVFLFPPKPKDTLMISRTPEVTCVVVDVSHEDPEVKFNWYVDGVEVHNAKTKPREEQYNSTYRVVSVLTVLHQDWLNGKEYKCKVSNKALPAPIEKTISKAKGQPREPQVYTKPPSREEMTKNQVSLSCLVKGFYPSDIAVEWESNGQPENNYKTTVPVLDSDGSFRLASYLTVDKSRWQQGNVFSCSVMHEALHNHYTQKSLSLSPGK
B4: 01C02R2 VHH Mono-Fc (Fc fusion)
chain: EVQLVESGGGLVQAGGSLRLSCAASGRSYAMGWFRQAPGKEREFAAAISWSGSRTYYADAVKGRFTISRDNAKNTVYLQMNSLKPEDTAVYYCAADPDGTVVASSGWTNSYEYGYWGQGTLVTVSSSPAPELLGGPSVFLFPPKPKDTLMISRTPEVTCVVVDVSHEDPEVKFNWYVDGVEVHNAKTKPREEQYNSTYRVVSVLTVLHQDWLNGKEYKCKVSNKALPAPIEKTISKAKGQPREPQVYTKPPSREEMTKNQVSLSCLVKGFYPSDIAVEWESNGQPENNYKTTVPVLDSDGSFRLASYLTVDKSRWQQGNVFSCSVMHEALHNHYTQKSLSLSPGK
B5: 01F03R3LS VHH Mono-Fc (Fc fusion)
chain: EVQLVESGGGLVQAGGSLRLSCAASGRTINGYVMGWFRQAPGEEREFVARIDWSGSSTDYADSVKGRFTISRDNAKITVYLQMNSLKPEDTAVYYCAGSAYYSGYVTHRDFGSWGQGTLVTVSSSPAPELLGGPSVFLFPPKPKDTLMISRTPEVTCVVVDVSHEDPEVKFNWYVDGVEVHNAKTKPREEQYNSTYRVVSVLTVLHQDWLNGKEYKCKVSNKALPAPIEKTISKAKGQPREPQVYTKPPSREEMTKNQVSLSCLVKGFYPSDIAVEWESNGQPENNYKTTVPVLDSDGSFRLASYLTVDKSRWQQGNVFSCSVMHEALHNHYTQKSLSLSPGK
B6: 03H01R3 VHH Mono-Fc (Fc fusion)
chain: EVQLVESGGGLVQAGGSLRLSCAASGRTSSIYNMGWFRQAPGQEREFVAAIHWGGGRTYYADSVKGRFTISRDNAKNTVYLQMNSLEPGDTANYYCAARRAPELLDDYKQKPEEIGTYHYWGQGTQVTVSSSPAPELLGGPSVFLFPPKPKDTLMISRTPEVTCVVVDVSHEDPEVKFNWYVDGVEVHNAKTKPREEQYNSTYRVVSVLTVLHQDWLNGKEYKCKVSNKALPAPIEKTISKAKGQPREPQVYTKPPSREEMTKNQVSLSCLVKGFYPSDIAVEWESNGQPENNYKTTVPVLDSDGSFRLASYLTVDKSRWQQGNVFSCSVMHEALHNHYTQKSLSLSPGK
B7: 01H10R2 His-tagged VHH (VHH)
VHH: QVQLVESGGGLVQPGGSLRLSCAASGRTSSISTMGWFRQAPGKEREFVTAIRWSGSSSYKYYADSVKGRFTISRDNARNTVYLQMNSLKPEDTAVYYCAAQMSLWRDPREIDYDYWGQGTLVTVSS
B8: 01A09R3L His-tagged VHH (VHH)
VHH: EVQLVESGGGVVQAEDSLRLSCAASGLSFSLSRMGWFRQAPGKEREFVATIEWSGRSTYKYYDDSVKGRFAVSGDNTKNTMNLQMKGLNLEDTGVYYCAANPNNYGDPRTPGAYQYWGQGTQVTVSS
B9: 01H02R3LS His-tagged VHH (VHH)
VHH: QVQLVESGGGLVQPGGSLRLSCAASGSIFSASVMGWYRQGPGKQREFVARISPGGVTHYADSVKGRFTISKDNAKNTVTLQMNSLKPEDTAVYYCNADRFGFEVYWGQGTLVTVSS
B10: 02B12R3 His-tagged VHH (VHH)
VHH: QVQLVESGGGWVQTGGSLRLSCAASGRTVSSYYMGWFRQTPGKEREFVAAISWVGSSTYKYYTDSAKGRFTISRDNAKNTVYLQMNSLKPEDTAVYYCAARPRVGDPRSRYDDDNWGQGTQVTVSS
B11: 01G05R2LS His-tagged VHH (VHH)
VHH: QVQLVESGGGLVQAGDSLALSCAGSGDTFSNYAMGWFRQAPGKEREFVADISWYSANIGYADSVKGRFTISRDNAKNMVTLRMNSLKPEDTAVYYCAADRNHWPVKGDYWGQGTQVTVSS
B12: 01F05R2LS His-tagged VHH (VHH)
VHH: QVQLVESGGGLVQAGGSLRLSCAASGSIFAINGMGWYRQAPGKQRELVAVITRGGSTNYADSVKGRFTISRDNAKNTVSLQMNSLKPEDTAVYYCAATGVLAGWAAGDGMDYWGKGTLVTVSS
B13: 01G07R3 His-tagged VHH (VHH)
VHH: QVQLVESGGGLVQAGDSLRLSCAASGRTLSFDTYAMGWFRQAPGKEREFVASIDWSGGTTYYADSVKGRFTVTRDNAKNTVTLRMNSLKPADTAVYYCAAAQYYRSGTSFPANYWGQGTLVTVSS
B14: 01F04R3LS His-tagged VHH (VHH)
VHH: EVQLVESGGGLVQAGGSLRLSCAASGRTFSRYAMGWFRQAPGKEREFVAAIAWSGGAIYYADFVKGQFTISRDNAKNTVDLEMNRLKPEDTAVYYCGSTRDPRVGDKKFYDYWGQGTQVTVSS
B15: 01G03R3L His-tagged VHH (VHH)
VHH: QVQLVESGGGSVQAGGSLRLSCAASGRTFSNYAMGWFRQAPGKEREFVAGISRSGGSTYSADSVKGRFTISRDNAKNTVYLQMNSLKPEDTAVYYCAADGLDYALGFRGDYWGQGTLVTVSS
B16: 02C10R3 His-tagged VHH (VHH)
VHH: EVQLVESGGGLVQPGGSLRLSCAASGFTFSSFTMTWFRQAPGKGLGWVSRISSDGTGTNYADSVKGRFTISRDNAKNTLYLRMNSLKPEDTAVYYCAIADDSSTRGQGTLVTVSS
B17: 01H10R3 His-tagged VHH (VHH)
VHH: QVQLVESGGGLVQAGGSLRLSCAASGRAFSQYTMGWFRQAPGKEREFVTAIRWSGGSIYKYYADSVKGRFTISGDNARNTVDLQMNSLKPEDTAVYYCAARMSPWGDPRGNEYDYWGQGTLVTVSS
B18: 01H08R3 His-tagged VHH (VHH)
VHH: QVQLVESGGGSVQTGGSLRLSCTASGRTFSNYGMGWFRQAPGKEREFVAGITRSGRTTYYYYADAVKGRFTIPRDNADNTIYLQMDSMKPDDTAVYYCAARQGENNYDPRSGSAYNYWGPGTQVTVSS
B19: 01A07R3LS His-tagged VHH (VHH)
VHH: QVQLVESGGGLVQAGDSLRLSCAASGRTFPTYAMGWFRQAPGKEREFVATIRWSGSTQYKYYADFVKGRFTISRDNAKNTVYLQMDSLKPEDTAVYYCAATTLLGDPRALNEYAYWGQGTQVTVSS
B20: 01G09R3LS His-tagged VHH (VHH)
VHH: B19 VHH with Q1E, G105T, E112A
B21: 01F12R2 His-tagged VHH (VHH)
VHH: EVQLVESGGGLVQPGGSLRLSCAASGRTFSSYTMGWFRQAPGEEREFVSAISWSSDGTYYKYYTDTVKGRFTISRDNAETTVHLQMNSLKPEDTAVYYCAASSSGTYGDPRSEREYRYWGQGTLVTVSS
B22: 01F09R3 His-tagged VHH (VHH)
VHH: QVQLVESGGGLAQAGGSLTLSCAASGTAAGIDVMGWYRQTPGNSREFVARIFSNDVTHYADSVTGRFTLSRTQDKNTVSLQMNSLKPDDTGVYYCNARIWTGSTTVDYWGQGTQVTVSS

Target: T1, human pIgR extracellular domain (ECD) (human, UniProt P01833 19-638)
T1 construct: Bought from R&D Systems (Cat 2717-PG-050); also called hpIgR ECD
T1 sequence (P01833 other isoform, or with tags, fused parts or gaps): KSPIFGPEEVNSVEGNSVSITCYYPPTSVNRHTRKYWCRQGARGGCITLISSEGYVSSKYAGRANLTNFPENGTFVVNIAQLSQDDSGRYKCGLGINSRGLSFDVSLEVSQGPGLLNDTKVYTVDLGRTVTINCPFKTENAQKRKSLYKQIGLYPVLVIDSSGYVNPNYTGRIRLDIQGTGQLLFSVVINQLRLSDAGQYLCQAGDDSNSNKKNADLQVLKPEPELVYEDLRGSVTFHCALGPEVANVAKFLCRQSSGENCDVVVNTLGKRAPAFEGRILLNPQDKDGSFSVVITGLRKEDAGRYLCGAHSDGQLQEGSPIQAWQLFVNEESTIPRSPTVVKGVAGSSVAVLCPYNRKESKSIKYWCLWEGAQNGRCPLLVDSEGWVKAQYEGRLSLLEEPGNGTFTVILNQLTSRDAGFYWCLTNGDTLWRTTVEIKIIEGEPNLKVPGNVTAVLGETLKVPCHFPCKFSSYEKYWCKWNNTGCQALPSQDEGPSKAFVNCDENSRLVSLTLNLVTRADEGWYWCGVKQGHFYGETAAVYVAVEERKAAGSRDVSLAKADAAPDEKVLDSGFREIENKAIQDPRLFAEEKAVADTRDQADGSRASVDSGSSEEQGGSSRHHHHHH
Experiment: SPR, VHH captured by anti-Fc, ECD analyte
Description: In an assay, two flow cells of the SPR were used, in which the flow cell 1 ran the buffer reference, and the flow cell 2 ran the analyte. […] The HBSP (GE) buffer was followed at a flow rate of 30 μL/min. Then, the VHHs were captured on the anti-human Fc protein surface at 0.5 ug/ml (˜200-300 RU) on the flow cell 2. The running buffer was changed to HBSP with 100 ug/ml BSA after the capture. Next, the pIgR extracellular domains were used as analyte and loaded in a series of concentrations, starting at 30 nM with further 3-fold dilution series.
The extracellular domains were prepared as follows: cynomolgus monkey and rat extracellular domains were produced and characterized in house; mouse and human pIgR extracellular domains were purchased from R&D Systems (Cat #2800-PG-050 & 2717-PG-050 respectively). The pIgR extracellular domains were injected from low to high concentration using a single-cycle kinetics method. The off-rate was monitored at 30 minutes after the last or highest concentration injection. The reference run was completed under the same conditions except that the pIgR injection was replaced by buffer injection.
The raw data were processed by subtracting two sets of reference data from the response data: (1) reference flow cell 1 subtracted from sample flow cell 2; and (2) buffer blank run subtracted from experimental run. The processed data at all concentrations for each VHH were globally fit to a 1:1 simple Langmuir binding model to extract estimates of the kinetic constants (kₒₙ, koff) and affinity constants (KD).

Binder	Kd
B1	1.97 nM
B2	1.29 nM
B3	2.76 nM
B4	0.275 nM
B5	10.9 nM
B6	0.15 nM

Target: T2, recombinant human pIgR (hpIgR) (human, UniProt P01833 19-638, limits assumed)
T2 construct: probably the ECD
T2 sequence (P01833 19-638 limits assumed): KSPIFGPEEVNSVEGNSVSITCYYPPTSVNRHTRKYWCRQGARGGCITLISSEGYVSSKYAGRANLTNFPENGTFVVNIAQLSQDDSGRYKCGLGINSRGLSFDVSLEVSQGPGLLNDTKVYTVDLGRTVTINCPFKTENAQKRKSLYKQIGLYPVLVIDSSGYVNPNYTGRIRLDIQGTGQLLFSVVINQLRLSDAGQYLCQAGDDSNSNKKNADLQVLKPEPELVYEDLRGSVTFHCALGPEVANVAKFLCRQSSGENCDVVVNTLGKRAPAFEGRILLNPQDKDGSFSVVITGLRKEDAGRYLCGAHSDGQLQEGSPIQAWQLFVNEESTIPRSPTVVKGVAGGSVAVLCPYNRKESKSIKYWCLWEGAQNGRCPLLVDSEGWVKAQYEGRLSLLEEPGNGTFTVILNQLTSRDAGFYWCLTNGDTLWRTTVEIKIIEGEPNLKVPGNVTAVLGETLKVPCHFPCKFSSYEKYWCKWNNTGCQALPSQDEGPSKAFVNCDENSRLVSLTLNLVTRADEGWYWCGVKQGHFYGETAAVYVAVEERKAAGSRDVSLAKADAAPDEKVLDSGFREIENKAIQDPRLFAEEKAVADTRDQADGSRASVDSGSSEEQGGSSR
Experiment: ELISA, periplasmic VHH, BSA subtracted
Method in brief: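 His-tagged VHH in periplasmic extracts (osmotic shock, non-suppressor E. coli) were tested by ELISA for binding to pIgR. Bound nanobody was detected with polyclonal anti-alpaca VHH antibody in the initial screen and anti-VHH antibody on retest. Signal on BSA, run in parallel, was subtracted from the pIgR signal.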

Binder	ELISA (OD)
B7	1.83 OD
B8	1.98 OD
B9	1.97 OD
B10	2.38 OD
B11	2.15 OD
B12	2.4 OD
B13	2.19 OD
B14	1.98 OD
B15	0.74 OD
B16	2.05 OD
B17	1.54 OD
B18	1.11 OD
B19	0.48 OD
B20	1.9 OD
B21	2.12 OD
B22	1.85 OD
